Source: US9872893B2, “Endolysins active against Staphylococcus bacteria, pharmaceutical compositions, and methods relating thereto” (priority 2014, dated 2018)

Columns and labels:
[1] = test system: SA113 ΔtagO cell walls (staphylococcal peptidoglycan); assay: cleavage analysis by mass spectrometry; type: biochemical, Staphylococcus aureus; settings: 50 μg/ml, 18 hours, ESI-MS of digest
Protocol: Briefly, SA113 ΔtagO cell walls (Atilano M L et al. (2010) Teichoic acids are temporal and spatial regulators of peptidoglycan cross-linking in Staphylococcus aureus. Proc Natl Acad Sci USA 107(44):18991-6; Weidenmaier C et al. (2004) Role of teichoic acids in Staphylococcus aureus nasal colonization, a major risk factor in nosocomial infections. Nat Med 10(3):243-5) were digested in 25 mM Tris, 200 mM NaCl, pH 7.4 at 37° C. for 18 hours with 50 μg/ml of PlyGRCS, filtered through 5000-MW cutoff Vivaspin 500 units (Sartorius North America Inc., Bohemia, N.Y.), and desalted using C18 Zip Tips (Millipore, Zug, Switzerland). Controls included peptidoglycan digested with the amidase domain of 2638A, a known N-acetylmuramoyl-L-alanine amidase, or undigested peptidoglycan. To further define the PlyGRCS cut site, double digests with PlyGRCS and a truncation construct containing only the CHAP domain of LysK (CHAP-K), a D-alany-glycyl endopeptidase were performed. The samples were eluted from the Zip Tips with 50:50:0.01 (v/v/v) CH3OH:H2O:[…] (pH˜2), and NanoESI-MS analysis was performed on a Q-TOF Ultima API mass spectrometer (Micromass, UK).

[2] = test system: stationary phase S. aureus NRS-14; assay: kinetic stability (lytic assay after incubation at indicated temperatures); type: cell-based, Staphylococcus aureus; settings: 25 μg/ml
Protocol: (§1) Lytic activity was based on turbidity reduction assay (Nelson D C et al. (2012) Endolysins as antimicrobials. Adv Virus Res 83:299-365). Briefly, bacterial cells were centrifuged (4,000 RPM, 5 minutes, 4° C.), re-suspended in buffer and mixed 1:1 (v/v) with endolysin to a final OD600=1. OD600 readings were taken every 15 seconds for 20 minutes at 37° C. Endolysin activity was equated to the Vmax dictated by the linear portion of the resulting killing curve. Each experiment was performed in triplicate.
To determine dose response, PlyGRCS was serially diluted and each dosage (100 μl) was added in triplicate to a 96-well polystyrene microtiter plate (Nest Biotech Co, Ltd) just before addition of bacterial cells (100 μl) according to the turbidity reduction assay described above. For optimum pH determination, bacterial cells were suspended in 40 mM boric acid/phosphoric acid (BP) buffer, pH 3-11, and were challenged against PlyGRCS. The influence of NaCl on PlyGRCS activity was tested in BP buffer at the experimentally determined pH optimum using the same assay. The effect of divalent cations was determined using the turbidity reduction assay with several modifications. […] Kinetic stability was evaluated (Son B et al. (2012) Characterization of LysB4, an endolysin from the Bacillus cereus-infecting bacteriophage B4. BMC Microbiol 12:33) with minor modifications. […]

[3] = test system: stationary phase S. aureus NRS-14; assay: turbidity reduction assay (lytic activity); type: cell-based, Staphylococcus aureus; settings: for decrease in optical density: 15 minutes
Protocol: as §1
To determine dose response, PlyGRCS was serially diluted and each dosage (100 μl) was added in triplicate to a 96-well polystyrene microtiter plate (Nest Biotech Co, Ltd) just before addition of bacterial cells (100 μl) according to the turbidity reduction assay described above. For optimum pH determination, bacterial cells were suspended in 40 mM boric acid/phosphoric acid (BP) buffer, pH 3-11, and were challenged against PlyGRCS. The influence of NaCl on PlyGRCS activity was tested in BP buffer at the experimentally determined pH optimum using the same assay. The effect of divalent cations was determined using the turbidity reduction assay with several modifications. First, PlyGRCS was incubated at room temperature in PBS or PBS supplemented with 5 mM EDTA for 10 minutes. Second, the EDTA-treated samples received either no further treatment, or were supplemented with 6 mM CaCl2 or 6 mM MgCl2. Finally, the lytic active of the samples was then immediately assayed and compared to PlyGRCS in PBS prior to EDTA inactivation. Kinetic stability was evaluated (Son B et al. (2012) Characterization of LysB4, an endolysin from the Bacillus cereus-infecting bacteriophage B4. BMC Microbiol 12:33) with minor modifications. Lytic assays were performed in optimal conditions after PlyGRCS was incubated at indicated temperatures for 30 minutes and subsequently recovered on ice for 5 minutes.

[4] = test system: S. aureus NRS-14 static biofilms; assay: biofilm assay (crystal violet staining); type: cell-based, Staphylococcus aureus; settings: 6.25 μg/ml, 1 hour, 1 day biofilms
Protocol: An overnight culture of S. aureus NRS-14 (1 ml per well) was placed into 24-well CELLBIND plates (Corning) containing 500 μl of TSB per well. After an additional 24 hour incubation at 37° C., media was aspirated and samples were washed with PBS to remove unattached cells. Two-fold serial dilutions of PlyGRCS in triplicate were added in 1 ml BP buffer pH 7 and incubated at 37° C. for one hour. Liquid was aspirated and samples were washed with distilled water before drying. Biofilms were stained with 0.01% crystal violet for 10 min at room temperature. After removing the excess crystal violet, samples were washed with PBS and dried before the addition of 1 ml 10% SDS to extract the crystal violet from the biomass for quantification at OD595.

[5] = test system: S. aureus cell walls (purified peptidoglycan); settings: 50 μg/ml, one hour, 37° C.
Text: To determine an increase in free amine groups, the trinitrophenylation reaction was used, originally described by Satake et al. and modified by Mokrasch (Satake M et al. (1960) Incorporation of leucine into microsomalprotein by a cell-free system of guinea-pig brain. Biochim Biophys Acta 41:366-7; Mokrasch L (1967) Use of 2,4,6-trinitrobenzenesulfonic acid for the coestimation of amines, amino acids, and proteins in mixtures. Anal Biochem 18:64-71). […] Samples were pelleted and the supernatant was filtered through a 0.22 μM filter. The sterile filtrate was added to sodium tetraborate and trinitrobenzenesulfonic acid and incubated for 30 minutes at room temperature. Samples were read at OD420. Lysine was used as a standard.

[6] = highest dose of 28 to 1.75 μg/ml dose response

B1: PlyGRCS: endolysin of bacteriophage GRCS (ORF15), amino acids 1-250, SEQ ID NO: 5, C-terminal 6× His tag (protein)
chain: MKSQQQAKEWIYKHEGTGVDFDGAYGFQCMDLAVAYVYYITDGKVRMWGNAKDAINNDFKGLATVYENTPSFKPQLGDVAVYTNSQYGHIQCVISGNLDYYTCLEQNWLGGGFDGWEKATIRTHYYDGVTHFIRPKFSASNSNVLETSKVNTFGNWKQNQYGTYYRNENATFTCGFLPIFARVGSPKLSEPNGYWFQPNGYTPYDEVCLSDGLVWIGYNWQGTRYYLPVRQWNGKTGNSYSIGLPWGVFS
modifications: C-terminal 6xHis tag; Synthetically generated polypeptide (PlyGRCS phage (S. aureus))
- hydrolytic activities (cleavage specificity) [1]: both N-acetylmuramoyl-L-alanine amidase and D-alanyl-glycyl endopeptidase hydrolytic activities
- residual lytic activity ([2]; after 30 minutes at 4° C. to 37° C.): > 90%
- lytic activity after heating (in words) ([2]; after 30 minutes at ≧40° C.): lytic activity was not observed
- decrease in optical density ([3]; 25 μg/mL): 70%
- lytic activity of EDTA-treated enzyme with excess CaCl2, compared to prior to EDTA treatment ([3]; 5 mM EDTA then 6 mM CaCl2): nearly twice the lytic activity
- lytic activity of EDTA-treated enzyme with magnesium ([3]; 5 mM EDTA then 6 mM MgCl2): mimicked that of the EDTA-treated sample
- lytic activity after EDTA treatment ([3]; 5 mM EDTA, 10 minutes): devoid of lytic activity
- decrease in activity by NaCl ([3]; 500 mM NaCl, BP buffer pH 7.0): ~35%
- optimal pH for lytic activity ([3]; BP buffer, pH range 3.0 to 11.0): 7.0
- time to 50% decrease in optical density [3, 6]: < 10 min
- decrease in optical density [3, 6]: 70%
- decrease in biofilm biomass [4]: ~50%
- free amine release (amidase/endopeptidase activity) [5]: free amines were detected
